Positions count from the first letter of the chain named. Entries after “also recorded” stand apart in the source; their conditions may differ.
B1: 40G10H11: rat anti-α11β1 mAb; VH SEQ ID NO: 157, VL SEQ ID NO: 158 (antibody, V domains shown)
VH: MDIRLSLGFLVLFIKGDQCAVQLVESGGGLVQPGRSLKLSCAASRITFTDYYMAWVRQAPTKGLEWVATISSDGGDTFYRDSVKGRFTISRDNAKSTLYLQMVSLRSEDTATYYCSTDRGAQFGYWGQGTLVTVSS
VL: MAPVQLLGLLLIWLPAMRCDIQMTQSPSFLSASVGDRVSINCKASQNVHENLNWYQQKLGEAPKRLIYNTNNLQTGIPSRFSGSGSGADYTLTISSLQPEDFATYFCLQHNAFPYTFGPGTKLELK
B2: 8-P20: mouse anti-α11β1 mAb; VH SEQ ID NO: 105, VL SEQ ID NO: 106 (antibody, V domains shown)
VH: KVMLVESGGALVKPGGSLKLSCVASGFTFSNYAMSWVRQTPEKRLEWVATISSGGYYTYYPDSVKGRFTISRDNARNTLFLQMSSLRSEDTAMFYCAREDDYGRYSYTMDYWGQGTSVTVSS
VL: DVVMTQTPLSLPVSLGDQVSISCRCSQSLVHSNGNTYLHWYLQKPGQSPQLLIYKISNRFSGVPDRFSGSGSGTDFTLKISRVEAEDLGVYFCSQSTHVPYTFGGGTELEIK
B3: 18E10F10: rat anti-α11β1 mAb; VH SEQ ID NO: 155, VL SEQ ID NO: 156 (antibody, V domains shown)
VH: MDIRLSLVFLVLFMKGVQCEVQLVESGGGLVQPGRSLKLSCAASRFTFSDYNMAWVRQAPKKGLEWVATIYHDDSGSYYRDSVKGRFTISRNNAKSTLYLQMDSLRSEDMATYYCARHNNGFDYWGQGVMVTVAS
VL: MKWPVRLLVLFFWIPASGGDVVMTQTPVSLPVRLGGQASISCRSSQSLVHSNGNTYLHWYLQKPGQSPQLLINRVSNRFSGVPDRFSGSGSGTDFTLKINRVEPEDLGDYYCLQSTHFPLTFGSGTKLETK
B4: 8H8E9: rat anti-α11β1 mAb; VH SEQ ID NO: 149, VL SEQ ID NO: 150 (antibody, V domains shown)
VH: MAVLVLLLCLVTFPSCALSQVQLKESGPGLVQPSQTLSLTCTVSGFSLTSNSVSWVRQAPGKGLEWMGAIWSGGSTDYNSALKSRLSISRDTSKSQVFLKMNSLQTEDTAIYFCTRSHWEPFDYWGQGVMVTVSS
VL: MESQTQALISLLLWVYGTCGDIVMTQSPFSLAVSEGEMVTINCKSSQGLLSSGNQKNYLAWYQQRPGQSPKLLIYYASTRQSGVPDRFIGGGSGTDFTLTISDVQAEDLADYYCLQHYSYPPTFGSGTKLEIK
B5: 6E5C11: rat anti-α11β1 mAb; VH SEQ ID NO: 151, VL SEQ ID NO: 152 (antibody, V domains shown)
VH: B4 VH with K24R, S54T, A59P, G73D, A81T, N102S
VL: B4 VL with F29L, M38T, I41M, G48S, L50F, R65K, G91S, A106T, S119N
B6: 79E3E3: rat anti-α11β1 mAb; VH SEQ ID NO: 145, VL SEQ ID NO: 146 (antibody, V domains shown)
VH: MDWLWNLLFLMVVAQSAQAQIQLVQSGPEVKKPGESVKISCKASGYTFTDYAMNWVKQAPGNGLKWMGWINTQTGKPTYADDFKQRFVFSLETSARTTYLQINNLNIEDTATYFCTRLGTGNTKGFAYWGQGTLVTVSS
VL: MESQTHVLISLLLCVSGTCGDILINQSPASLTVSAGERVTMSCKSSQSLLYSENNQDYLAWYQQKPGQFPKLLIYGASNRHTGVPDRFTGSGSGTDFTLTISSVQAEDLADYYCEQTYRYPFTFGSGTKLEIK

Tests used:
mouse α11β1 = mouse α11β1 (Mus musculus, UniProt P61622); assay: ELISA binding to recombinant mouse α11β1; conditions: for Murine α11β1 ELISA: binding Yes/No
Sequence of mouse α11β1 (P61622 23-1141 limits assumed): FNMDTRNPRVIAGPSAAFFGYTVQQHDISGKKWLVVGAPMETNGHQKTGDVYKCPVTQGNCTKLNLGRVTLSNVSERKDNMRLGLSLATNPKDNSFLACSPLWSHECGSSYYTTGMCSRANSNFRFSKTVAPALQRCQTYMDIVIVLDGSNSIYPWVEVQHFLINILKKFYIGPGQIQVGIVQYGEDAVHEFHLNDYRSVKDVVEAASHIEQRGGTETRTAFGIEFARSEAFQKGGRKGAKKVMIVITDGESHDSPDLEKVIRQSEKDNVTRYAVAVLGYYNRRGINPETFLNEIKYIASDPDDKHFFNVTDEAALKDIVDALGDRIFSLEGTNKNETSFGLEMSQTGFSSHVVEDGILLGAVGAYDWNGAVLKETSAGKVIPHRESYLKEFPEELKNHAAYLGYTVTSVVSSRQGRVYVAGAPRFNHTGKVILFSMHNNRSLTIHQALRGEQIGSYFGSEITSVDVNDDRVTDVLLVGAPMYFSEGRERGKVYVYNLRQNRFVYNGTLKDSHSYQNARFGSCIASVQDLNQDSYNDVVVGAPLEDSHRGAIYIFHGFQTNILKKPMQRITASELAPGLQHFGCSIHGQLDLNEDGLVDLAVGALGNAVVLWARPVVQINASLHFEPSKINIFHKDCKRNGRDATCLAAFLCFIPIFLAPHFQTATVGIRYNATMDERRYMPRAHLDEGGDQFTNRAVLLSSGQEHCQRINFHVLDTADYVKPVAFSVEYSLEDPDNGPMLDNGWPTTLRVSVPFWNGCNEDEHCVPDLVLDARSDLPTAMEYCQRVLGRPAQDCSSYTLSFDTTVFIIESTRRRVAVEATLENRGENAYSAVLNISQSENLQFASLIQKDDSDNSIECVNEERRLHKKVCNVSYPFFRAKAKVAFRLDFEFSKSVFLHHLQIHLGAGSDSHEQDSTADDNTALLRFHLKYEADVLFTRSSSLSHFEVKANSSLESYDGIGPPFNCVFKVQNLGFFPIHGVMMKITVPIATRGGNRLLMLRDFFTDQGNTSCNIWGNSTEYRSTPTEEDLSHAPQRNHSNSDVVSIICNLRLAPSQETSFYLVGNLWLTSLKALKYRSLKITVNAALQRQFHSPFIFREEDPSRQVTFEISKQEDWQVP
Sequence of mouse α11β1 (P09055 21-728 partner limits assumed): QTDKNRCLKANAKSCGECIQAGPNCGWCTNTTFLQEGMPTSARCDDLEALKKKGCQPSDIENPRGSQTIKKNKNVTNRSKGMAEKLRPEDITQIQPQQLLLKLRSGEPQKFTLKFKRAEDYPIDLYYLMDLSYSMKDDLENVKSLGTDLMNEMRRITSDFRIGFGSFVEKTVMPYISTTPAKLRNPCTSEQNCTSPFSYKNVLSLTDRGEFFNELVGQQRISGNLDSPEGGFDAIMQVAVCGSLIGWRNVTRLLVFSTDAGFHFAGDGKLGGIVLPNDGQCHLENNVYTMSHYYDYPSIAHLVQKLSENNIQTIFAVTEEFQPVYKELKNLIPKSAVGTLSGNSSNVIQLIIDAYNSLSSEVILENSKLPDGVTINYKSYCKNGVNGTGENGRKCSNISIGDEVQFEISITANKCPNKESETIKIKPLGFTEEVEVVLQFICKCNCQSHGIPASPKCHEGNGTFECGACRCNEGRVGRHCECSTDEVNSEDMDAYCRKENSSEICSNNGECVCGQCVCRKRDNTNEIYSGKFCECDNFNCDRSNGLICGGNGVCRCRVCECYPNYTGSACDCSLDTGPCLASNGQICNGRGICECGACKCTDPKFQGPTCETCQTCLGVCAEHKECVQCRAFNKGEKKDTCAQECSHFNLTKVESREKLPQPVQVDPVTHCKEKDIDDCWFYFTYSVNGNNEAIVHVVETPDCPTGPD
Experimental: (§1) 0.25 μg/mL of target antigen (recombinant human or mouse α11β1) was plated in a 96-well plate over night at 4° C. Plates were washed (PBS with 0.1% Tween-20), blocked (PBS with 2% BSA and 0.05% Tween-20) for 1 hour at room temperature and incubated with a range of antibody concentrations for 1 hour at room temperature. Subsequently, plates were washed and incubated with biotinylated anti-rabbit/mouse/human IgG in a 1:1000 dilution buffer and incubated for 1 hour at room temperature. After washing the plates, Streptavidin HRP was added at 1:200 in dilution buffer and incubated for 1 hour at room temperature. Ultra TMB ELISA substrate solution was added and the plates incubated for 5 minutes on a plate shaker. The reaction was stopped by adding stop solution to each well and plates were read at 450 nm.

human α11β1 = human α11β1 (Homo sapiens, UniProt Q9UKX5); assay: ELISA binding to recombinant human α11β1; conditions: binding Yes/No
Sequence of human α11β1 (Q9UKX5 23-1141 limits assumed): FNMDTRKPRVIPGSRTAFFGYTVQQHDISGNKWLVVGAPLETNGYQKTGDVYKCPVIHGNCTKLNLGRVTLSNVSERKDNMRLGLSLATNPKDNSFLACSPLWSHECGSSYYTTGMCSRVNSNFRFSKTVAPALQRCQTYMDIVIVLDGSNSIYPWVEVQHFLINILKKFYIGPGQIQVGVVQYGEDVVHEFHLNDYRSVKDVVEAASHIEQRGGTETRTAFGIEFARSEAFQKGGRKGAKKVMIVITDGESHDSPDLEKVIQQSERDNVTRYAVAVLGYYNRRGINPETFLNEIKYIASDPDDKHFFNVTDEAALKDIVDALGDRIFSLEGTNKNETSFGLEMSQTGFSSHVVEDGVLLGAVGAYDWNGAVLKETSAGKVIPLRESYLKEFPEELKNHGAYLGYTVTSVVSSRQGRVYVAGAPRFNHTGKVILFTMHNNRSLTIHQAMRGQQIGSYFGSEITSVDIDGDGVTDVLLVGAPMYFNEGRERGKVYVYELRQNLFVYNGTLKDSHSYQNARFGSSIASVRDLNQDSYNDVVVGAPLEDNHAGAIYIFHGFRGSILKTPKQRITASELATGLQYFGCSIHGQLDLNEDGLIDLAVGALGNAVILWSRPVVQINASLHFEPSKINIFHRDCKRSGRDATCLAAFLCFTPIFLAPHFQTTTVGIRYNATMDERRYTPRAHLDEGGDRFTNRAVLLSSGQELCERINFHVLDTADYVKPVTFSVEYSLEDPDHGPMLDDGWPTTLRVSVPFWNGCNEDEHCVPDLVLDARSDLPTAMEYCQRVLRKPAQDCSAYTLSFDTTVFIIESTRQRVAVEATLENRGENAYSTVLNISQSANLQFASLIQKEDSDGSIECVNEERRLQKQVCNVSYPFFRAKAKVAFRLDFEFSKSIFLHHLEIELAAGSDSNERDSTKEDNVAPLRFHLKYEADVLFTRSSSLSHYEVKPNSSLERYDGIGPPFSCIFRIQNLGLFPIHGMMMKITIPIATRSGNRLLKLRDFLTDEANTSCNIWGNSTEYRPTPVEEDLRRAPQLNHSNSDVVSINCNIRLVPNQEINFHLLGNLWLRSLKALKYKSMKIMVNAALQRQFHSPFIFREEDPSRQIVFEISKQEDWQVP
Sequence of human α11β1 (P05556 21-728 partner limits assumed): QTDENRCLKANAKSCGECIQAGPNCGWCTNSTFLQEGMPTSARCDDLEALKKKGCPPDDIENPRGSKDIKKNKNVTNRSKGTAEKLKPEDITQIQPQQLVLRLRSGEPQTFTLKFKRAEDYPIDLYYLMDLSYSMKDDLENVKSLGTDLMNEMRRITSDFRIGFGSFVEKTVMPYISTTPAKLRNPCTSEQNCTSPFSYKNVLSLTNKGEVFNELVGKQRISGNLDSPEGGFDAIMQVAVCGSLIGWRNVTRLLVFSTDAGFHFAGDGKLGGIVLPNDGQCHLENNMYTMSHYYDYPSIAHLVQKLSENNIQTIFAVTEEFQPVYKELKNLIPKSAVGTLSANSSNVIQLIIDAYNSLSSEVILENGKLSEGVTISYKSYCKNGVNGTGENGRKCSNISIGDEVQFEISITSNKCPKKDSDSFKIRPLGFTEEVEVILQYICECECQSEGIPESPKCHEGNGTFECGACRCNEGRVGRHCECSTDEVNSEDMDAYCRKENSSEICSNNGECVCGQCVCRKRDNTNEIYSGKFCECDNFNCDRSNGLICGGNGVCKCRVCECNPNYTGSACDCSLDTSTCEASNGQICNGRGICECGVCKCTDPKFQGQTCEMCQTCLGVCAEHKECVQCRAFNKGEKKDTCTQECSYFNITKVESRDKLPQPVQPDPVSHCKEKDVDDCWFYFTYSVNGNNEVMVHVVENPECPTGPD
Experimental: as §1

I domain of α11β1 = biological target: T1, I domain of α11β1 (Homo sapiens, UniProt Q9UKX5); assay: ELISA binding to in-house generated I domain of α11β1; conditions: for I Domain binding: Yes/No; for binding to I domain of α11β1 (high, medium, low): ELISA
T1 construct: An in-house generated I domain of α11β1 was used; made in house
T1 sequence (Q9UKX5 164-345 limits assumed): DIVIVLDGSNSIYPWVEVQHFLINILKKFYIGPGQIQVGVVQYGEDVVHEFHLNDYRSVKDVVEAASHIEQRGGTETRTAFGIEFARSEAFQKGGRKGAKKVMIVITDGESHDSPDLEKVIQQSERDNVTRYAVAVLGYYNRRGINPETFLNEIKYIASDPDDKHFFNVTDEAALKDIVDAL
Experimental: as §1
22 Data was also collected to determine whether antibodies of interest bind to the I domain of α11β1. An in-house generated I domain of α11β1 was used. […] Mouse antibodies 10-F23, 10-L15, 7-O8, 6-A12, 9-G05 and 9-E16 and rabbit antibodies 7-H12 and 2-D3 were also tested for binding against the in-house generated α11031 domain. FIGS. 3A and 3B show graphs illustrating binding data from exemplary mAbs.

α1β1, α2β1 and/or α10β1 = assay: Counter-screen for cross-reactivity to other collagen receptors; type: binding, human; conditions: for Off Target: cross-reactivity to α1β1, α2β1, α10β1
Experimental: Wistar rats were immunized with recombinant human α11β1 protein. An enzyme-linked immunosorbent assay (ELISA) was used to test an immune response against target human and mouse proteins. Subsequently, cell fusion (by electro fusion) was performed with animals that produced a good immune response. All fused cells were plated in a 96-well plate and supernatants were screened by ELISA against soluble human and mouse α11β1. Positive clones were counter-screened against human α1β1, α2β1 and α10β1. […] Purified antibodies were then generated from the selected clones and heavy chain and light chain variable domain sequences were obtained from each purified antibody.
10 mice from 5 different strains were immunized with an appropriate mixture of human α11β1, mouse α11β1 and tolerance breaking protein. Plasma titers were evaluated by ELISA against a mixture of human and mouse α11β1. Popliteal, inguinal, and iliac lymph nodes were collected. ELISA-positive anti-human/mouse α11β1 hybridomas were expanded and subjected to a secondary screen against human and mouse α11β1, control HIS protein, and a counter-screen was performed against human […], α2β1 and α10β1. Supernatant IgG concentration was sufficient for functional screening. Selected hybridomas satisfying all the criteria were cloned and clonal hybridomas were confirmed by ELISA against human and mouse α11β1 and subsequently scaled-up and IgGs were purified. Heavy and light chain variable regions of selected hybridomas were then sequenced.
α11β1 belongs to a family of collagen receptors and has a relatively high homology to them. Therefore, the novel antibodies of this invention were counter-screened against α1β1, α2β1 and/or α10β1. Table 2 includes results of cross-reactivity to the other receptors.

[1] = test system: CHO-K1 cells expressing human α11; assay: Cell adhesion inhibition (xCelligence), type I collagen; type: cell-based; conditions: for inhibition of cell adhesion to type I collagen: CHO-K1 hu α11 cells; for Inhibition of CHO-K1 adhesion to collagen: Yes/No
Experimental: 0.6×10^6 cells/mL were incubated with each antibody at a range of concentrations for 20 minutes at 37° C. E-Plate VIEW 96 PET plate coated with 100 ng/mL type I collagen or PBS overnight at room temperature was blocked in 3% BSA for 1 house at room temperature. After washing the plate with PBS, cell and antibody mixture was added to the wells and the plate was places into an xCelligence machine. Cell adhesion was recorded over 6 hours. The time point of maximum cell adhesion was used for comparison relative to control.
A CHO-K1 hu α11 cell line was used to assess the ability of mAbs to block α11β1-mediated binding to type I collagen. […] In the “Untreated” condition, cells were plated on type I collagen but no antibody was added and in the “Uncoated” condition, cells were seeded onto BSA-coated wells containing no type I collagen. Statistics were performed using one-way ANOVA followed by Dunnett's multiple comparisons test. […] Therefore, it is possible that these mAbs bind on an α11β1 domain that keeps the integrin in a low or intermediate affinity state. […] Nine human mAbs were also tested for their ability to inhibit the binding of human CHO-α11 cells to type I collagen.

[2] = test system: human pulmonary fibroblasts (HPFs); assay: FACS antibody binding to human pulmonary fibroblasts; conditions: binding Yes/No
Experimental: (§2) Human Pulmonary Fibroblasts (ScienCell) were cultured in complete Fibroblast Growth Medium (ScienCell) until 80% confluent in T-150 flasks. Cells were washed and harvested using Accutase. Cells were seeded into T-150 flasks at 7,500 cells/cm^2 in complete FGF and cultured for 72 hours. Cells were then washed and starved in serum reduced medium for 24 hours. After starvation, cells were treated with TGFβ-1 (R&D Systems) for 72 hours. Cells were harvested using Accutase and seeded in 96-well conical bottom plates. Cells were blocked with Heat Inactived Fetal Bovine Serum (Gibco) for 30 minutes at 4° C. Cells were then incubated with anti-α11 antibodies at the doses described in each figure for 30 minutes at 4° C. A human anti-α11 antibody (Creative BioLabs) was included as a positive control as well as the appropriate IgG isotype negative controls. Cells were washed twice and incubated with PE conjugated secondary antibodies specific to the IgG class of the anti-α11 antibodies being tested for 30 minutes at 4° C. Cells were washed twice and fixed in 1% PFA for 30 minutes. Cells were acquired on a FACS Verse […]. Data were analyzed by gating on single cells and determining the geometric Mean Fluorescence Intensity (gMFI) in the PE channel for each sample.
(§3) Binding to a physiologically relevant primary human cell type was also tested. Human pulmonary fibroblasts (HPF) and TGFβ treatment were used to induce a fibroblast-to-myofibroblast transition (FMT), giving rise to myofibroblasts (MF). […] Additionally, HPFs express α11 and α2β1, other collagen binding receptors, which means that HPFs can be to test cross-reactivity of antibodies of interest.

myofibroblasts (MF) = assay: FACS antibody binding to myofibroblasts; design: species or system human; conditions: binding Yes/No
Experimental: as §2, §3

Molecule | Murine α11β1 ELISA (mouse α11β1) | Human α11β1 ELISA (human α11β1) | I-domain binder (I domain of α11β1) | I Domain binding (I domain of α11β1) | cross-reaction with other collagen receptors (α1β1, α2β1 and/or α10β1) | Off Target (α1β1, α2β1 and/or α10β1) | inhibition of cell adhesion to type I collagen [1] | Inhibition of CHO-K1 adhesion to collagen [1] | HPF FACS [2] | MF FACS (myofibroblasts (MF)) | binding to I domain of α11β1 (high, medium, low) (I domain of α11β1) | binding to mouse α11β1 (mouse α11β1)
B1 | Yes | Yes | not found to be an I-domain binder; also recorded: neither of the antibodies was found to be an I-domain binder | No | does cross-react with other collagen receptors (α1β1, a2β1 and a10β1) | Yes (all) | strongly inhibited cell adhesion; also recorded: inhibited cell adhesion | Yes | – | – | – | –
B2 | No | Yes | – | No | – | No | did not block cell adhesion | No | No | Yes | – | –
B3 | No | Yes | – | No | – | No | – | Yes | – | – | – | –
B4 | No | Yes | – | No | – | No | – | Yes | – | – | medium | –
B5 | No | Yes | – | No | – | No | – | No | – | – | low | –
B6 | Yes | Yes | found to be an I-domain binder | Yes | – | No | strongly inhibited cell adhesion | Yes | No | Yes | high | cross-reacts with mouse α11β1
